Assay results as given in paper PMC3173608 (Structure(London, England:1993), 2011).

Target: the molecule itself
Assay: SEC

B1: CsgG_(16-277) (domain or fragment)
chain: CLTAPPKEAARPTLMPRAQSYKDLTHLPAPTGKIFVSVYNIQDETGQFKPYPASNFSTAVPQSATAMLVTALKDSRWFIPLERQGLQNLLNERKIIRAAQENGTVAINNRIPLQSLTAANIMVEGSIIGYESNVKSGGVGARYFGIGADTQYQLDQIAVNLRVVNVSTGEILSSVNTSKTILSYEVQAGVFRFIDYQRLLEGEVGYTSNEPVMLCLMSAIETGVIFLINDGIDRGLWDLQNKAERQNDILVKYRHMSVPPES
stoichiometry N: 8 protomers
